Experiment: soluble on expression in E. coli; label from the status in PepcDB or PDB records
With “AIAESTKSNDIPILRNVSDSFSDHYGKYLQRCGIFVPKDGDSSGPDAYVVFHNGQTRYVVAFSFTFYHKTEFSKRDIEKEAEQFFQEVISVLNDGSPSSVQLCFQFVVVCTRYDRSVVFSSEEQNIVEDASYLVTEHSAGSTLNESRRSCLQLVVVSQRNLERFLGRENFDILRKIGKASREEFRKDFSVWCKTVFESMSDEYVSPLEAKPFNVTLRVARNIRPRTNEENRMQMEGFQTAMQVEEGNTRGEQRVAASSSLSSSFDWNTFLREYCGLSEEDVAYCLPKVEDIDMDELPAVTKEILRDLGIDKPALRLKIRSSIRSYLANER” the “soluble on expression in E. coli” value was “soluble”. In the case of “MSLSPFEHPFLSGLFGDSEIIELFSAKADIDAMIRFETALAQAEAEASIFADDEAEAIVSGLSEFAADMSALRHGVAKDGVVVPELIRQMRAAVAGQAADKVHFGATSQDVIDTSLMLRLKMAAEIIATRLGHLIDTLGDLASRDGHKPLTGYTRMQAAIGITVADRAAGWIAPLERHLLRLETFAQNGFALQFGGAAGTLEKLGDNAGAVRADLAKRLGLADRPQWHNQRDGIAEFANLLSLVTGTLGKFGQDIALMAEIGSEIRLSGGGGSSAMPHKQNPVNAETLVTLARFNAVQISALHQSLVQEQERSGAGWMLEWLTLPQMVTATGTSLLVAERLAAQIDRLGADESHHHHHH”, the “soluble on expression in E. coli” value is reported as “soluble”. With “MVRSFIYEPFQIPSGSMMPTLLIGDFILVEKFAYGIKDPIYQKTLIETGHPKRGDIVVFKYPEDPKLDYIKRAVGLPGDKVTYDPVSKELTIQPGCSSGQACENALPVTYSNVEPSDFVQTFSRRNGGEATSGFFEVPKNETKENGIRLSERKETLGDVTHRILTVPIAQDQVGMYYQQPGQQLATWIVPPGQYFMMGDNRDNSADSRYWGFVPEANLVGRATAIWMSFDKQEGEWPTGLRLSRIGGIH” the “soluble on expression in E. coli” value was “soluble”. In the case of “MNFSGKYQVQSQENFEPFMKAMGLPEDLIQKGKDIKGVSEIVHEGKKVKLTITYGSKVIHNEFTLGEECELETMTGEKVKAVVKMEGDNKMVTTFKGIKSVTEFNGDTITNTMTLGDIVYKRVSKRI”, the “soluble on expression in E. coli” value is reported as “soluble”. With “MNLKREQEFVSQYHFDARNFEWENENGAPETKVDVNFQLLQHDQENQVTSLIVILSFMIVFDKFVISGTISQVNHIDGRIVNEPSELNQEEVETLARPCLNMLNRLTYEVTEIALDLPGINLEF” the “soluble on expression in E. coli” value was “soluble”. In the case of “MAHHHHHHMEALFYDHAVASTATRQADLRQALQAFLADAASRSAVQLIALFVHIPVPSTVSVASHTASGSRTSSRTSSSREGGSAAARHAATGKAASAASPSPPAASRRRCNAAKLAWCAWEADRRLRQAAEDASEMNKWLAHDDLSASRKAGAGIARSYCRGAFVVAVAFLAPCTRDDIVVYESWQRCTEMCAEASAADVARGSASRTTRMLSPLRHARLIALSLGAPSLLLSWAERPTRCHLDSLLLPHQSLLVDLSWWVATASGSAGTVSDAAAGSRVSNSVLRDIFISDVQRSLKLPKGDSRCAVWISYATLLESLHPQVMGRIDGADGDGVSVDMRVAGSASRRKRGRNTLCGEFSGVDEQAFMMTYARIRHLLSSLNASQAGAVGHTRFLRVVLSYGGPSSALRRQLVHTCSRTEHGVTAVDAALLRTRSLVDVHALFGVLAGQDTVNVYSEAAAFVRTARRRASAGEAAQQRHQRIAVQSARVEVTSSPSSGPPGTEHEGVDSGAGNLCHNAFVERGARALARRLRLWERKRLGKRGKRGVHVRPRDKAARRPMKRGHAGTNDADSERVLVHAVERASRAAATPKTGNKRRAEPLASVDGRPSASATRALLPPQKQRRTDAVAVSPTLATDTALRWSEDVAGSG”, the “soluble on expression in E. coli” value is reported as “not soluble”. With “MLSKRIVTALNTAVKVQNAGIATTARGMAGASGSEVSKILEERILGTETGINLEETGKVLSIGDGIARVYGLKNIQAEEMVEFDSGIKGMAMNLDVDNVGVVVFGNDKVIREGDIVKRTGAIVDVPVGDGLLGRVVDALGNPIDGKGPIANARRSRVEVKAPGIIPRLSVREPMVTGVKAVDSLVPIGRGQRELIIGDRQTGKTAIAIDTIINQKRFNDAGDDKKKLFCIYVAVGQKRSTVAQIVKRLTDAGAMDYTIVVSATASDAAPLQFLAPYSGCAMGEHFRDNGKHALIIFDDLSKQAVAYRQMSLLLRRPPGREAYPGDVFYLHSRLLERAAKMNNSLGGGSLTALPVIETQAGDVSAYIPTNVISITDGQIFLETELFYKGVRPAINVGLSVSRVGSAAQTKAMKQVAGSMKLELAQYREVAAFAQFGSDLDASTQQLLNRGVRLTELLKQGQYVPMGIEEQVGVIYAGVKGYLDKVDPSAITKFEKEFLAHLRSSQQALLKTIREEGQISPQTDAQLKDVVVNFLATFKP” the “soluble on expression in E. coli” value was “not soluble”. In the case of “MATKRDYYEILGLSKDSSVEDIKKTYRKLALQYHPDRNKEPGAEEKFKEISEAYAVLSDAEKRAQYDRFGHAGIDNQYSAEDIFRGADFGGFGDIFEMFFGGGRRGGPMGPRRGSDLQYDLYVTFEEAAFGVRKDIDIPRTERCSTCSGTGAKPGTSPKRCPNCGGTGQVRTTRSTLGMQFVSTTTCSACHGRGQVVESPCPTCSGAGRVRSRRKMSVNVPAGADSGMTLRLSGEGDAGEPGAPSGDLYIIVHVMEHKYFKRVDYDVISELPISFTQAALGADIMVDTLYGKVKMNIPSGTQTHSVFRLKDKGIQRLQGHGKGDQLVRVIIRTPTKLTQEQKDLLHQFEYLSNGKKPEAEERSRSDKQKSEKPRKSKGLFEKVKDAFES”, the “soluble on expression in E. coli” value is reported as “not soluble”. In the case of “MLSAFTPRPLKRLFTANQCWTSFLDAGGLRDIEVEAVTKMLACGTRILGVKEYICDKPECPHVRYVTNSCGSRACPSCGKKATDLWIATQLNRLPDCDWVHLVFTLPDTQWPVFESNRWLLNDVCRLAVENLLYAARKRGQEPGIFCAIHTYGRRLNWHPHVHVSVTCGGLNKHGQWKKLSFLKDAMRSRWMWNMRQRLLKAWSEGLAMPESLSHITTESQRRSLVLKAGGKYWHVYMSKKTAGGRNTARYLGRYLKKPPIAASRLAHYNGGGA”, the “soluble on expression in E. coli” value is reported as “not soluble”. With “NTKQLRFEDVVNQSSPKNCTVYCGGIASGLTDQLMRQTFSPFGQIMEIRVFPEKGYSFVRFSTHESAAHAIVSVNGTTIEGHVVKCYWGKESPDMT” the “soluble on expression in E. coli” value was “soluble”. In the case of “MGSDKIHHHHHHMNYKPEIAIIESNTLTCLGLKSILEEIIPMATIRTFHSFSELMDDTPDMYAHYFISAQIYVEHNAFFLPRKRKTIVLASDSPQFQLSGVPVLNIYEPEEKLVKSLLKLHQHAHHNGYPVKDMPPIAMPEVHQEILSAREIEVLVLITKGLINKEIADKLNISLTTVITHRKNITEKLGIKSVSGLTIYAVMNGYIEADRI”, the “soluble on expression in E. coli” value is reported as “not soluble”. In the case of “MGSDKIHHHHHHMKIFLDTANLEEIKKGVEWGIVDGVTTNPTLISKEGAEFKQRVKEICDLVKGPVSAEVVSLDYEGMVREARELAQISEYVVIKIPMTPDGIKAVKTLSAEGIKTNVTLVFSPAQAILAAKAGATYVSPFVGRMDDLSNDGMRMLGEIVEIYNNYGFETEIIAASIRHPMHVVEAALMGVDIVTMPFAVLEKLFKHPMTDLGIERFMEDWKKYLENLKK”, the “soluble on expression in E. coli” value is reported as “soluble”. In the case of “MGSDKIHHHHHHMDTMVSNSQTYLKILADLIKIKSVNDHELEVAEYLQDLFQENGIEAKILPLEGQRANLVAEIGEGAPVLAVSGHMDVVDPGNLAAWDNDPFTMTEKDGKLFGRGITDMKAGLAALVIAMIELKKQGLPKKGTIRLLATAGEEVGEEGSAAFYRDHYMEDAAGLLIAEPSTVYGTASEQKGSFDIKFTSKGTSVHSSTPEKGYNALVPLMQLLNEANTYFETIPAGEMGPVRFNIDVLNGGSQINSLPDLATALVNVRTIPEYDNNQVAKQIETFVKSYNANGAQINTDLIMNEFPIATSPSNQLVKIIQSLGKEYAGRDIVVAASPGITDASNLAKDKPHDFPFAVYGPGDGSQHQVNESLPKQMYLDFIEIYQKLFIEFLEK”, the “soluble on expression in E. coli” value is reported as “not soluble”. With “MSLHPETSTELADIRKKAGRRRSIVFVAGNFNIVHPGHLRLLKFAADCGDYLVVGVTADPGYDWMLPAELRLEGVRAIGVVDHAFLLHDAPEDFIAALQPSVVVKGKEHEGADNPEKAVLDGYGGRLVFSSGEVAFSSLDLIKREFREFNPSSIVKPLDYPRRHRFELLELKNVLAGFPKLRVLVLGDLIVDEYIACDPLGLSQEDPTIVVTPVLRELFVGGAGIVAGHAAGMGAQVALLTVGGGDAMADFARERLASYNVDATILTDESRPTTTKQRFRAGNKTLLRVSHLKQHDVDADLQTRMLETIEHRLPSTDLVVFSDFNYGCLPTRLVEAIGQACRARGVPMVADSQSSSQVGDISRFAEMLLIKPTEREARLAMRDFDSGLVVLVEALREKARAKNVILTLAAEGLLVHAETGSAGTVVTDRLPAFNTAPKDAAGAGDSFFVCAALALAIGTDIWRSAYLASIAAACQVGRIGNIPVTARDIIRELDTEGHHHHHH” the “soluble on expression in E. coli” value was “soluble”. In the case of “MHSPTPFALAIFLGILYHIPTFSNQRSIMNNLELEQLINQKLSSDKINDYAPNGLQVEGKTEIKKIITGVTASQALINYAISQNADAILVHHGYFWKSETPCIRGMKGKRIKALLVNDINLYGYHLPLDVHPELGNNAQLAKLLDIENLQPLEKGSVSIPVWGELKEPMTGKDFAEKIEKVLNRKPLICIENGPHLIRKIGICTGGGQGYIDLAAEQGCDAFITGEVSEQTIHSAREQGLYFFSAGHHATERYGIKALGEWLAKEYGFDVEFKDIDNPALEHHHHHH”, the “soluble on expression in E. coli” value is reported as “soluble”. In the case of “GPGSMSNIKKVQTEADRLLKKVNEGLDAYDELHEKLANAPNASAKERLEGDLKRELKKLQRHREAMKSFMQNDDYKEKMKMQVSRKKIEERMETFRAIEREMKTKAFSNEGLASAALERADSATEQWLKDAIEEGRKKIELLEYEVQKANNGRVRRGKQQKSEYQIRLENLQTHFFKWESLLRMVNNEELDTDEVDDLQEPIQKVLEDDVDLDVMEDMSIYDSFDIPEPKAKPVVPFDVSDYEDKKVQSPKTTAKAKTPTSTVQAKPSPFITSPKETAASPPAAKAASSTPVPSSMQQPALAQAPQQQLLPPTANSPADDDIGEEEPVPEWMDDDMDTANDDTFGDAAMSGGFTIGSLAEMASATNKVTQDWEKSQKPVGSLEPKTVKVTDPVHGAPEEKRKPTPPVAAPTPNAWERRAAEQQSRQKVQQQQQKQAPEAASPVAPLGPVAAAAEASAPEAVTTSLINPVAATSPSTPAGSANTDPIQPFPPIPGAAPGSKFTPKKIHELLDMSLGNLPHTLDVQRQRPYEPPNAIDAIPYFPQEVLPVLSNKDVYHQMDLDTLFFIFYYHQKSYQQYFAAKELKARSYRYHTKQQRWYQRLERPQTTTETEERGSYTFFDFEDKWDHDRIDDFLFEYKYLENELH”, the “soluble on expression in E. coli” value is reported as “soluble”. For “MPGKLLWGDIMELEAPLEESESQKKERQKSDRRKSRHHYDSDEKSETRENGVTDDLDAPKAKKSKMKEKLNGDTEEGFNRLSDEFSKSHKSRRKDLPNGDIDEYEKKSKRVSSLDTSTHKSSDNKLEETLTREQKEGAFSNFPISEETIKLLKGRGVTYLFPIQVKTFGPVYEGKDLIAQARTGTGKTFSFAIPLIERLQRNQETIKKSRSPKVLVLAPTRELANQVAKDFKDITRKLSVACFYGGTSYQSQINHIRNGIDILVGTPGRIKDHLQSGRLDLSKLRHVVLDEVDQMLDLGFAEQVEDIIHESYKTDSEDNPQTLLFSATCPQWVYKVAKKYMKSRYEQVDLVGKMTQKAATTVEHLAIQCHWSQRPAVIGDVLQVYSGSEGRAIIFCETKKNVTEMAMNPHIKQNAQCLHGDIAQSQREITLKGFREGSFKVLVATNVAARGLDIPEVDLVIQSSPPQDVESYIHRSGRTGRAGRTGICICFYQPRERGQLRYVEQKAGITFKRVGVPSTMDLVKSKSMDAIRSLASVSYAAVDFFRPSAQRLIEEKGAVDALAAALAHISGASSFEPRSLITSDKGFVTMTLESLEEIQDVSCAWKELNRKLSSNAVSQITRMCLLKGNMGVCFDVPTTESERLQAEWHDSDWILSVPAKLPEIEEYYDGNTSSNSRQRSGWSSGRSGRSGRSGGRSGGRSGRQSRQGSRSGSRQDGRRRSGNRNRSRSGGHKRSFD”, the “soluble on expression in E. coli” value was “soluble”.
